B1: human FSTL 1 (hFSTL1): N180Q (Mut-1) (protein)
parent chain: MWKRWLALALALVAVAWVRAEEELRSKSKICANVFCGAGRECAVTEKGEPTCLCIEQCKPHKRPVCGSNGKTYLNHCELHRDACLTGSKIQVDYDGHCKEKKSVSPSASPVVCYQSNRDELRRRIIQWLEAEIIPDGWFSKGSNYSEILDKYFKNFDNGDSRLDSSEFLKFVEQNETAINITTYPDQENNKLLRGLCVDALIELSDENADWKLSFQEFLKCLNPSFNPPEKKCALEDETYADGAETEVDCNRCVCACGNWVCTAMTCDGKNQKGAQTQTEEEMTRYVQELQKHQETAEKTKRVSTKEI
B2: human FSTL 1 (hFSTL1): N175Q (Mut-2) (protein)
parent chain: B1 parent chain
B3: human FSTL 1 (hFSTL1): Mut-(1–3) (protein)
parent chain: B1 parent chain
B4: human FSTL 1 (hFSTL1): N144Q (Mut-3) (protein)
parent chain: B1 parent chain

Columns and labels:
[1] = CD31 staining, left ventricle, 28 days post-MI; settings: glycan lost; control: Luc modRNA
[2] = Masson trichrome staining, 28 days post-MI; settings: glycan lost; control: Luc modRNA (hFSTL1 modRNA not significant)
[3] = proliferation markers in non-CMs 7 days post-MI; settings: glycan lost; control: hFSTL1 modRNA
[4] = weighing, 28 days post-MI; settings: glycan lost; control: Luc modRNA
[5] = CM size in heart sections 7 days post-MI; settings: glycan lost; control: control constructs
[6] = echography, %EF and %FS, 28 days post-MI; settings: glycan lost; control: Luc modRNA (hFSTL1 modRNA not significant)
[7] = CD45 staining 7 days post-MI; settings: glycan lost; control: hFSTL1 modRNA

Protein | other: capillary density post-MI [1] | other: scar size post-MI [2] | other: non-CM proliferation in heart [3] | other: heart weight-to-body weight ratio [4] | other: CM size / hypertrophy [5] | other: cardiac function post-MI [6] | other: leukocyte infiltration in heart [7]
B1 | increases | decreases | no change | increases | no change | increases | no change
B2 | – | – | no change | – | – | – | no change
B3 | – | no change | no change | – | no change | no change | no change
B4 | – | – | no change | – | – | – | no change

— publication PMC6171324
